Values of other authors in article PMC12475976.

Molecular target: SREBF1 (Homo sapiens) (UniProt P36956)
Sequence (P36956 whole entry): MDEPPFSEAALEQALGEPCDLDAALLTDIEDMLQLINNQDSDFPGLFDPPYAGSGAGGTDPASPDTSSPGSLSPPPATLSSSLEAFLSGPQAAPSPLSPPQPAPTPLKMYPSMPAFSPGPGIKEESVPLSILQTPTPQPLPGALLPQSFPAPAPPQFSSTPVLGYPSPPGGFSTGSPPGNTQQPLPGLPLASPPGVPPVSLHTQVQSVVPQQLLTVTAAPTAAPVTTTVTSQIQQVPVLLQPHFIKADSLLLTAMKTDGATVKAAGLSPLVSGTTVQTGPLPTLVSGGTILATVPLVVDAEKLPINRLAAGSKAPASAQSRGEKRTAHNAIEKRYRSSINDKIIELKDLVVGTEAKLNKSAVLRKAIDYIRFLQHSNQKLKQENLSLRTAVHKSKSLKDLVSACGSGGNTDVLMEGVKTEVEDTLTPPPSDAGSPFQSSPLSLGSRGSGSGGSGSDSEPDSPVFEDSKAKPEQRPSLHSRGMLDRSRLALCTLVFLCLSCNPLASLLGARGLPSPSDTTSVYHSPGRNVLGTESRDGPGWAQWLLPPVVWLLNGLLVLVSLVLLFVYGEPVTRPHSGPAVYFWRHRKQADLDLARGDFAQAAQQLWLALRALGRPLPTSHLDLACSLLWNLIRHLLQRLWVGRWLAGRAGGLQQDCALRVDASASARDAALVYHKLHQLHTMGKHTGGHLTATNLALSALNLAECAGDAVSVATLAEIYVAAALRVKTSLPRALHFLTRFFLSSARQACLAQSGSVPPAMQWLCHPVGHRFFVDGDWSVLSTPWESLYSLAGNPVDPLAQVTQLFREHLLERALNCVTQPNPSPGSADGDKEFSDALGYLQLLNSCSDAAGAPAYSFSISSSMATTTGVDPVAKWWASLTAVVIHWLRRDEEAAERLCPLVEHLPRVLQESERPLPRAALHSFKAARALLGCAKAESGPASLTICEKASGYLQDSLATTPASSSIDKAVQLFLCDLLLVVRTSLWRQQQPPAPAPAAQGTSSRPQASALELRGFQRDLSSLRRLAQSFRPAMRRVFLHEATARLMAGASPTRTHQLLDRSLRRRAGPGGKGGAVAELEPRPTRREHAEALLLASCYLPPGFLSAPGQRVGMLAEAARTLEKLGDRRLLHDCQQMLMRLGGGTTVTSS

Chain of Vav2 (P52735 whole entry): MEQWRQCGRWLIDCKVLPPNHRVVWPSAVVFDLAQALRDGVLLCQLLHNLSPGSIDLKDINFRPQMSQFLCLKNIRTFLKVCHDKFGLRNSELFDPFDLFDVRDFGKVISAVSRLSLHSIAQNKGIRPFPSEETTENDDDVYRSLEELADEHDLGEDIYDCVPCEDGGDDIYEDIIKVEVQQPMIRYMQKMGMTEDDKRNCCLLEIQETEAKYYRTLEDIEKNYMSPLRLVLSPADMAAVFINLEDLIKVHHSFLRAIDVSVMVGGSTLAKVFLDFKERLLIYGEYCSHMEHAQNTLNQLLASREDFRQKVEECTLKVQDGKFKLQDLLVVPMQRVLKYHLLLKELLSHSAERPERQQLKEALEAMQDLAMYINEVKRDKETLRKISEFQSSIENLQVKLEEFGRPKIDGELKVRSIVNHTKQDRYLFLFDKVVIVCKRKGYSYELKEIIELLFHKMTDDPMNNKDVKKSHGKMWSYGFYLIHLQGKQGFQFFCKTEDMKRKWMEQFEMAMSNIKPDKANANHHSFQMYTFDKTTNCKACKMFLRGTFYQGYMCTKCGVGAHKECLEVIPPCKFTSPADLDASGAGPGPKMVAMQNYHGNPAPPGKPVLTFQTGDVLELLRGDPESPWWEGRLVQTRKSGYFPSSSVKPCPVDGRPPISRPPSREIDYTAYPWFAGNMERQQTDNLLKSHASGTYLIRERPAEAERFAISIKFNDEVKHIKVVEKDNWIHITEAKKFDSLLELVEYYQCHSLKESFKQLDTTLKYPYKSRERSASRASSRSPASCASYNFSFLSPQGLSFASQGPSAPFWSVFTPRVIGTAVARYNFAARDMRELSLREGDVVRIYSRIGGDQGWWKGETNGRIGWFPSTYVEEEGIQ

Kd: 8.3 nM
Substance: Vav2 (from UniProt P52735)
